Laboratory results as given in patent publication US20170173114A1, “METHODS AND COMPOSITIONS FOR INDUCTION OF UCP1 EXPRESSION” (Joslin Diabetes Center, Inc., priority 2014, published 2017).
Entries after “also recorded” stand apart in the source; their conditions may differ.

Key:
UCP1 [1] = test: High-throughput screen of secreted proteins for UCP1 mRNA induction in committed brown preadipocytes; format: cell-based, murine; settings: after induction media; secreted protein library
Description: To identify protein(s) that can induce UCP1 expression in brown preadipocytes, a high-throughput screen was performed using a protein library containing more than 5,000 mammalian secreted proteins (Lin H. et al., Science 320:807-811, 2008) in an immortalized murine brown preadipocyte cell line (Klein J. et al., J. Biol. Chem. 274:34795-34802, 1999; Tseng Y. H. et al., Nat. Cell. Biol. 7:601-611, 2005). The screen included applying induction media to brown preadipocyte cells, resulting in committed brown preadipocytes.

[2] = test system: WT-1 murine brown preadipocytes; test: Oil Red O staining of lipid accumulation in WT-1 cells; format: cell-based; settings: WT-1, absence of induction cocktail
Description: Cell culture dishes were washed twice with phosphate-buffered saline and fixed with 10% buffered formalin overnight at 4° C. Cells were then stained for 2 hours at room temperature with a filtered oil red O solution (0.5% oil red O in isopropyl alcohol), washed twice with distilled water, and visualized.
(§1) The effect of FGF6 on differentiation of WT-1 murine brown preadipocytes was also examined. WT-1 cells can be induced to undergo brown adipocyte differentiation, characterized by lipid accumulation and expression of adipogenic and brown fat markers, as described above (Klein et al. (1999) J Biol Chem 274:34795; Tseng et al. (2005) Nat Cell Biol 7:601). WT-1 cells were treated with FGF6 in growth media (DMEM+10% FBS), a vehicle control (“control” or “C” referred to in FIGS. 3A-D), or induction media (“induction” or “I” referred to in FIGS. 3A-D) as described above for seven days. Following the treatment, cells were examined for the color of the culture media in combination with oil Red O staining, expression of adipogenic markers, expression of brown fat markers, immunofluorescent staining of cells with UCP1 and DPAI, and Western blot analysis to determine the presence of UCP1 and β-tubulin. The results are described in FIGS. 3A to 3D.

UCP1 [3] = test: UCP1 mRNA expression in C2C12 myogenic progenitors; format: cell-based; settings: three days
PTGS2 (COX2) = test: PTGS2 mRNA / COX2 protein expression in WT-1 brown preadipocytes; format: cell-based, murine
Description: Total RNA was isolated with QIAzol lysis reagent (Qiagen, Valencia, Calif.) and purified by RNeasy Mini columns (Qiagen) following the manufacture's instructions. cDNA was prepared from total RNA using the Advantage RT-PCR kit (BD Biosciences, Palo Alto, Calif.) according to manufacturer's instructions. Diluted cDNA was used in a PCR reaction with SYBR Green Master Mix (Applied Biosystems, Foster City, Calif.) and primers specifically designed for detection of the gene of interest. PCR reactions were run in duplicate for each sample and quantitated in the ABI Sequence Detection System (Applied Biosystems). Data were expressed as arbitrary units after normalization to levels of expression of internal controls for each sample. Sequences of primers for specific genes are each obtained from the published literature or designed using publically available gene sequence databases. Unless otherwise indicated, gene expression data described in the examples below was obtained using QPCR.
(§2) Cells were harvested in lysis buffer (50 mM HEPES, 137 mM NaCl, 1 mM MgCl2, 1 mM CaCl2, 10 mM Na2P2O7, 10 mM NaF, 2 mM EDTA, 10% glycerol, 1% Igepal CA-630, 2 mM vanadate, 10 μg/ml of leupeptin, 10 μg/ml of aprotinin, 2 mM phenylmethylsulfonyl fluoride; pH 7.4). After lysis, lysates were clarified by centrifugation at 12,000×g for 20 min at 4° C., the amount of protein in the supernatants was determined by the Bradford Protein Assay (Bio-Rad Laboratories, Hercules, Calif.). Proteins were directly solubilized in Laemmli sample buffer. Equal amounts of lysates were separated by sodium dodecyl sulfate-polyacrylamide gel electrophoresis and transferred to Immobolin-P membranes. Membranes were blocked overnight at 4° C. and incubated with the indicated antibody for 2 hours at room temperature. Specifically bound primary antibodies were detected with peroxidase-coupled secondary antibody and enhanced chemiluminescence (ECL, Amersham Biosciences, Piscataway, N.J.).
To determine if FGF4, FGF5, FGF6, FGF10, FGF16, FGF17, FGF18 or FGF20 induced either UCP1 mRNA or PTGS2 mRNA expression, murine brown preadipocyte WT-1 cells (Tseng et al., Nat. Cell. Biol. (2005) 7(6):601-611) were grown in growth media (DMEM-high glucose+10% FBS) supplemented with FGF4, FGF5, FGF6, FGF10, FGF16, FGF17, FGF18, FGF20 or buffer (control) in combination with insulin (20 nM) and triidothyronine (T3, 1 nM) for three days. All FGFs were used at a dosage of 200 ng/mL. mRNA was isolated and UCP1 and PTGS2 gene expression levels were evaluated by quantitative reverse transcription polymerase chain reaction (Q-RT-PCR) analysis. All experiments were performed triplicate and the data are presented as mean+/−SEM.
To determine if FGF1 or FGF10 induce UCP1 mRNA expression or PTGS2 mRNA expression, murine brown preadipocyte WT-1 cells (Tseng et al., Nat. Cell. Biol. (2005) 7(6):601-611) were grown in growth media (DMEM-high glucose+10% FBS) supplemented with FGF1, FGF10 or vehicle (control) in combination with insulin (20 nM) and triidothyronine (T3, 1 nM) for three days. FGF1 and FGF10 were used at a dosage of 50 ng/mL, 100 ng/mL or 300 ng/mL. mRNA was isolated and UCP1 and PTGS2 expression levels were evaluated by quantitative reverse transcription polymerase chain reaction (Q-RT-PCR) analysis. All experiments were performed triplicate and the data are presented as mean+/−SEM.
To test the role of specific prostaglandins (PGs) in activating UCP1 expression, WT-1 brown adipocytes were pretreated with PGE2, PGI2 and FGF6 for 24 hours. mRNA expression levels of UCP1, PTGS2, LDHA, PDK1 and PKM2 were then measured.

UCP1 protein = UCP1 protein in WT-1 cells (immunofluorescent staining, Western blot); format: cell-based, murine; settings: for UCP1 protein, immunofluorescent staining: relative to control cells
Description: as §2, §1
FGF2, FGF6 and FGF9 were used at a dosage of 200 ng/mL. Cells were stained using immunofluorescent stains for UCP1 and DAPI (which binds to DNA).

B1: FGF6: fibroblast growth factor 6; recombinant human FGF from R&D Systems, or mouse FGF6 cDNA overexpressed by lentiviral vector (protein)
chain: KRQRRLYCNVGIGFHLQVLPDGRISGTHEENPYSLLEISTVERGVVSLFGVRSALFVAMNSKGRLYATPSFQEECKFRETLLPNNYNAYESDLYQGTYIALSKYGRVKRGSKVSPIMTVTHFLPRI
B1 was tested, and the “UCP1 mRNA expression in committed brown preadipocytes (screen)” value (UCP1 [1]) was “induced UCP1 mRNA expression”, the “lipid accumulation by Oil Red O staining” value [2] was “very little to no lipid accumulation” and the “UCP1 mRNA expression in C2C12 myogenic progenitors” value (UCP1 [3]) was “neither FGF6 nor FGF21 induced UCP1 mRNA expression; also recorded: no induction of UCP1”. The “PTGS2 mRNA expression relative to the control” value (PTGS2 (COX2); 200 ng/mL with insulin and T3, three days) was “increased”, the “PTGS2 mRNA expression” value (PTGS2 (COX2); 50-300 ng/mL, three days) was “induced” and the “COX2 protein expression, Western blot” value (PTGS2 (COX2); 50-300 ng/mL, three days, dose-dependent) was “increased”. For the same molecule, the “PTGS2 mRNA expression” value (PTGS2 (COX2); WT-1, 24 hours, vs vehicle) was “significantly induced”, the “UCP1 protein, immunofluorescent staining” value (UCP1 protein; WT-1, 200 ng/mL with insulin 20 nM and T3 1 nM) was “significant levels of staining” and the “UCP1 protein, Western blot” value (UCP1 protein; WT-1, seven days) was “present”. The “UCP1 protein, immunofluorescent staining” value (UCP1 protein; WT-1, seven days) was “significant levels of staining”.
